{"source": "paper PMC5009119", "about": "“Characterization of the Promoter Region of Biosynthetic Enzyme Genes Involved in Berberine Biosynthesis in Coptis japonica”", "binders": {"B1": {"name": "3x W-box probe (W2 of CYP80B2 promoter) (dsDNA)", "DNA 1": "CTGCTGACTAGCTGACTAGCTGACTAGATGG", "DNA 2": "CCATCTAGTCAGCTAGTCAGCTAGTCAGCAG"}}, "target": "GST-CjWRKY1 (Coptis japonica, UniProt A0ZT25 1-185)", "sequence (A0ZT25 entry or part of it)": "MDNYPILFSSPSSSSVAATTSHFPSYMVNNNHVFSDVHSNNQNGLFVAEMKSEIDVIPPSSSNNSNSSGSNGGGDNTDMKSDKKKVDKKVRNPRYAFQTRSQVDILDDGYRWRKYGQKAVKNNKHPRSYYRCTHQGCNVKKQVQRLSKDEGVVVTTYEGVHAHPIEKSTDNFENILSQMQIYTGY", "test": "EMSA; poly(dI-dC) 0.05 ug/ul; 3 ug protein, 20 fmol probe; EMSA: 1x LightShift binding buffer, 1 mM MgCl2, 0.5 mM EDTA, 0.05 ug/ul poly(dI-dC), 20 min at 4 C; pH not stated", "details": "protein: recombinant; tags: GST (N-terminal, pGEX-6P-1); label: biotin (sense and antisense oligonucleotides)"}
{"binder": "B1", "values": [{"measurement": "binding result", "value": "binds"}]}
